Experimental data as given in publication PMC3134622 (Biochemistry, 2011).

Biological target: T1, GST-PBD46 (peptide derivative of p21-activated serine/threonine kinase, PAK Binding Domain 46)
T1 chain: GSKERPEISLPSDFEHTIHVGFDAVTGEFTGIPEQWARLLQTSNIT
Test: pull-down

ΔI (pull-down band intensity, wild type:PBD46 relative to T35A:PBD46): 4.2 ± 0.59
B1: Cdc42 wild type (natural protein)
chain: not shown
